Experimental data from PMC2958111.

Target: VEGF receptor 2 (UniProt P35968)
Assay: ELISA; VEGFR1 or VEGFR2 (200 ng/well) covalently attached with ethyl-carbodiimide to an amino-acid-coated 96-well plate; VEGF-A (200 ng/ml) applied alone or mixed with heparin, HS or porcine ocular fluid, 4°C overnight; washed with ice-cold PBS; bound VEGF-A measured with components of a human VEGF ELISA kit; values relative to controls (%)

Sequence of UniProt P35968 (P35968 20-764): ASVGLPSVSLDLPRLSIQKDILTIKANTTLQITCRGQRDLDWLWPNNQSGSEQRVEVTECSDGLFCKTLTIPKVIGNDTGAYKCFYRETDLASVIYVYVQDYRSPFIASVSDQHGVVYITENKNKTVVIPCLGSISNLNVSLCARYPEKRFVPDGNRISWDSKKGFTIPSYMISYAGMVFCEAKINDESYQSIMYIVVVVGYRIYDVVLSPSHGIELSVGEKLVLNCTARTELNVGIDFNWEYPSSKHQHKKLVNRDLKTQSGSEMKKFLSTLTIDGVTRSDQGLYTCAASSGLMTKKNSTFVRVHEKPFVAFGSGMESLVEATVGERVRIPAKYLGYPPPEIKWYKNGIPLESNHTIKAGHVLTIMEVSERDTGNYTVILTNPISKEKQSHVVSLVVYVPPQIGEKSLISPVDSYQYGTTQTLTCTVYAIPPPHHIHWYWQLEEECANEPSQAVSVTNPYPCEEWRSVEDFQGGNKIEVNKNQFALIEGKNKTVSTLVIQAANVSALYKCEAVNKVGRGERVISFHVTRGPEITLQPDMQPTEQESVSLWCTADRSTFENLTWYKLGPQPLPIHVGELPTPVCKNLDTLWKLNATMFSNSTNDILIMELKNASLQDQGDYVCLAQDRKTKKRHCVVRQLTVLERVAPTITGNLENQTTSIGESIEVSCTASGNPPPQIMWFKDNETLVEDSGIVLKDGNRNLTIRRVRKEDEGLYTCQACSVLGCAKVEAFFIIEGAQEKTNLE

| Substance | percent reduction of binding with 1,000 µg/ml soluble heparin [%] | percent inhibition of binding by 1,000 µg/ml of HS from bovine kidney [%] | percent inhibition of binding by porcine ocular fluid (63.2 µg/ml of HS) [%] |
| --- | --- | --- | --- |
| vascular endothelial growth factor-A, VEGF121 isoform (ligand) | 9.4 | – | – |
| vascular endothelial growth factor-A, VEGF165 isoform (ligand) | 59.8 | 88.1 | 85.7 |
